# Data reported in the RNAGym collection of RNA variant scans (doi:10.1073/pnas.2313332121).
# B1: TPR t1 (parent)
# chain: GACCAAUCUGCCCUCAGAGCUCGAGAACAUCUUCGGAUGCAGAGGAGGCAGGCUUCGGUGGCGCGAUAGCGCCAACGUCCUCAACCUCCAAUGCAUCCCACCACAUGAUGAUGCCUGAAGAGCCUUGGUUUUUUG
# Variants of: B1
# Assay: polymerase ribozyme fitness, log enrichment relative to wild type (log ratio); higher = more active; in vitro selection for triplet polymerase activity
# In short: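 Genotype fitness is the logarithm of its enrichment divided by wild-type enrichment, using inverse-variance-weighted averages of replicates. That logarithm is base 2. Enrichment was measured by Illumina sequencing of input and output libraries from one triplicate in vitro selection round, with frozen incubation at −7 °C, on PCR-built, transcribed mutant libraries of each subunit of a heterodimeric triplet polymerase ribozyme, retaining genotypes with ≥10 input reads and ≥1 read per output.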
row,Variant,polymerase ribozyme fitness (log ratio)
1,C8U C70G C97U C124U U131A,-1.27
2,G52A G57U C72U,-0.842
3,A5U G63C,-0.837
4,C3A C76G G93A C115G,-5.76
5,G48U A118G U125G,-2.75
6,C34A A68G A100C C123U,-5.6
7,G47C G61A U87A U92A,-5.03
8,A43C G44U,-2.14
9,A6U C22U G51A,-5.76
10,C3A U59G U78A C89A G120U,-3.26
11,A6C G39U,-1.84
12,C4G G63U G120U G122U,-1.51
13,G39C C114A,-1.94
14,C72U U133C,0.275
15,G48C U92A C104U,-3.44
16,C70A G110A,-3.53
17,G47A C70A G77A C79U C86G,-5.44
18,C40A G61C A66U G128U U129A U133G,-6
19,C34A G71U,-2.95
20,A5C A37G C88A,-3.94
21,U9G C56U G65C A105U U109C,-6.39

row,Variant,polymerase ribozyme fitness (log ratio)
1,A24U C49A C82G U112A U133C,-4.62
2,U32G A119G,-5.95
3,A46U G122U,-0.865
4,C3U U54C C104A U131C,-2.52
5,G42A C88G U132C,-2.38
6,A6G G48A G52C C85G U112C,-0.453
7,C56A C73U A84U G120U,-1.05
8,C12U C98G,-4.85
9,A29C C56G C82A U87C C89A A108G C124A,-7.12
10,G57U U116C,-1.31
11,G71C A84G U133A,-3.86
12,C13G A29G G42A,-5.99
13,C15U G63U,-3.19
14,C28U A43G G113A,-3.91
15,G36A G127C,-1.81
16,G17U A37U,-2.44
17,A6G C8G C11U C22U C79U,-3.56
18,C28A U112A,-1.21
19,C12U A68G,-1.94
20,C31G C62U A84G U87A G93U G120U,-6.9
21,C8U C64A C115U,-6.79

row,Variant,polymerase ribozyme fitness (log ratio)
1,A2U C22G U33C C34A,-5.51
2,A16U G60U U87G G122A U126C,-3.42
3,G36A G52A A66G,-2.6
4,U9C A16U G52U,-0.423
5,C13A A50U G71U,-2.57
6,C3U G17C G61C G117U,-5.52
7,A50C A84C,-1.1
8,C4A U55C,-2.5
9,C13G C22U G39U C53G,-5.48
10,C13G G117U,-4
11,A66C C82A,-1.46
12,U59C C70U C85A,-2.04
13,G69A C98U,-3.52
14,U7C A27U C79U,-3.22
15,G19A G60A G93U,-3.84
16,G10U G110C,-4.86
17,C11U G36U,-1.77
18,C3U A41C U125A U126C,-3.37
19,A24G G47A C73A,-1.58
20,G58C U59G C86G,-0.556
21,U112G C123A,-2

row,Variant,polymerase ribozyme fitness (log ratio)
1,G39A A43U,-1.78
2,U112G G117A,-2.9
3,G47U A121C C123A G128A,-2.3
4,G51U U78C,-4.43
5,G10A U33C C86A A111U,-6.34
6,A16U U78A U92A,-4.78
7,A16U G45A G61U C82G,-1.81
8,C11U C40U G122A,0.00533
9,C12A C20A G63A U87A G122U,-4.81
10,C56G C62U,0.102
11,U9A C11U G52A,-0.401
12,G77A A95C,-0.839
13,C8A C11A G51U,-2.89
14,C4A C72U G117C U131A,-5.79
15,C8U A27C G63C C79A A119G,-4.92
16,A43C G117A,-3.01
17,C13G G63C,-1.92
18,A84U U131G,-0.716
19,C94G C115A,-0.789
20,A5C A37C G60C C79U C123A,-0.023
21,U9C C20A A37G G47A U87G G120A G122U,-3.6
